Experimental data reported in patent US6824994B2, “Peptide ligands that mimic sensor kinases and inhibit response regulators” (priority 2000, dated 2004).
Entries after “also recorded” stand apart in the source; their conditions may differ.

What was measured:
[1] = target: T1, VanR˜P-PVanH complex (Enterococcus faecium, UniProt Q06239); assay: Gel shift analysis of VanR˜P binding to PVanH DNA; type: biochemical
T1 construct: GST (N, cleaved yes); made in house; host or cells: E. coli BL21 lambda DE3 (pGEX-2TK); phosphorylated with lithium acetyl phosphate
Experimental: (§1) Amplification and 5′-End-Labeling of PVanH DNA. A 254 bp DNA fragment containing the PVanH promoter region (residues −191 to 63) was obtained by PCR as described by T. Holman et al., 33 Biochem. 4625-4631 (1994) using a boiled cell preparation of En. faecium A634 as the template source. Amplified PVanH promoter DNA was 5′-end-labeled with [γ-32 P]ATP (specific activity of […]) and phage T4 polynucleotide kinase. The reaction mixture was incubated for 30 minutes at 37° C., and unincorporated ATP was removed by centrifugal gel filtration (Sephadex G-50 spin column, Amersham Pharmacia Biotech).
Phosphorylation of VanR with Acetyl Phosphate. VanR was phosphorylated as described previously in T. Holman et al., 33 Biochem. 4625-4631 (1994). The reaction was performed in a total volume of 100 μL which contained 50 mM HEPES (pH 7.2), 5 mM MgCl2, 50 mM lithium acetyl phosphate, and 9 μM VanR. […]
Gel Shift Analysis of VanR ˜P Binding to PVanH DNA. VanR-PVanH complexes were quantified by gel shift analysis as described by T. Holman et al., 33 Biochem. 4625-4631 (1994). […]
(§2) To start the reaction, ^32P-labeled PVanH promoter probe DNA (0.65 ng in 1 μL) was added, and the reaction mixture was incubated on ice for 15 minutes. The resultant VanR˜P-PVanH complexes were analyzed by nondenaturing PAGE. […]

[2] = target: T2, VanR (Enterococcus faecium, UniProt Q06239); assay: Phage ELISA of phage-displayed peptides binding to immobilised VanR; details: cloned N-terminal regulatory domain of VanR
T2 construct: GST (N, cleaved yes); made in house; host or cells: E. coli BL21 lambda DE3 (pGEX-2TK)
Experimental: Phage Display. Phage display was performed using the methods described by A. Sparks et al., Phage Display Of Peptides And Proteins; A Laboratory Manual (1996). Microtiter plate wells were coated with purified VanR and used to select binding phage from a library displaying combinatorial peptides, i.e., 10 random NNK codons followed by a Cys codon, TGC, in the eleventh position (N is A, G, C, or T, and K is G or T). After three rounds of selection, the binding of individual phage clones to the VanR target protein was assessed by phage-ELISA using an anti-M13 phage monoclonal antibody-horseradish peroxidase conjugate (Pharmacia). Ninety-six phage plaques were picked from the third round of selection and tested for their ability to bind to VanR and to BSA, by phage ELISA, to determine levels of specific and background binding, respectively.
For inserting determinants for desired peptide sequences into phage M13 DNA, oligonucleotides encoding the defined peptide sequences were cloned into the XhoI and XbaI sites within gene III of bacteriophage M13. The resulting recombinant phage were then tested for binding to various protein targets, immobilized within microtiter plate wells, by phage ELISA. […]
Sequence Analysis of Combinatorial Peptides. […] The deduced peptide sequences were further analyzed by alignment with the amino acid sequence of VanS using the program MultAlin. […]

[3] = target: T3, VanR-PVanH complex (Enterococcus faecium, UniProt Q06239); assay: Inhibition of the interaction between 32P-labeled PVanH promoter DNA and VanR; type: biochemical; details: chemically synthesized peptide in disulfide form; 32P-labeled PVanH DNA segment
T3 construct: GST (N, cleaved yes); made in house; host or cells: E. coli BL21 lambda DE3 (pGEX-2TK)
Experimental: as §1
Gel Shift Analysis of VanR ˜P Binding to PVanH DNA. VanR-PVanH complexes were quantified by gel shift analysis as described by T. Holman et al., 33 Biochem. 4625-4631 (1994). Complexes were formed in a total volume of 15 μL which contained 4 pmol of VanR-P, which was preincubated with the appropriate effector peptides (as aqueous solutions) for 10 minutes at room temperature in 20 mM HEPES (pH 7.2), 5 mM MgCl2, 0.1 mM Na2EDTA, 0.5 mM CaCl2, 10% glycerol, and 0.5 μg of salmon sperm DNA.
as §2, with “PAGE. See generally J. Sambrook et al., Molecular Cloning: A Laboratory Manual, 2nd Ed.” for “PAGE.”

[4] = target: T4, phosphoryl transfer from P˜VanS to PhoB (Escherichia coli, UniProt P0AFJ5); assay: Phosphotransferase assay, phosphoryl transfer from P˜VanS to PhoB; type: biochemical; details: peptide at 1 mM
T4 construct: GST (N, cleaved yes); made in house; host or cells: E. coli BL21 lambda DE3 (pGEX-2TK)
Experimental: Phosphotransferase Assay. VanSc-GST (4 pmol) was labeled for 60 minutes at room temperature in a 5 μL volume containing, 50 mM Tris-HCl (pH 7.4), 5 mM MgCl2, and 100 mM KCl. The reaction was initiated by addition of 1 μL of 200 μM [γ-^32P]ATP which contained 1 μCi. After 60 minutes, the 5 μL reaction mixture was added to a 15 μL reaction mixture containing 80 pmol of PhoB and 2.5 mM PMSF all in the same buffer, with the appropriate peptide at a final concentration of 1 mM. Reactions were stopped by the addition of 10 μL of SDS gel loading buffer, and the resultant mixture was fractionated by SDS-PAGE. Phosphoproteins were assessed autoradiographically with a phosphorimager, as previously described.

T1 sequence (Q06239 whole entry, one chain of several): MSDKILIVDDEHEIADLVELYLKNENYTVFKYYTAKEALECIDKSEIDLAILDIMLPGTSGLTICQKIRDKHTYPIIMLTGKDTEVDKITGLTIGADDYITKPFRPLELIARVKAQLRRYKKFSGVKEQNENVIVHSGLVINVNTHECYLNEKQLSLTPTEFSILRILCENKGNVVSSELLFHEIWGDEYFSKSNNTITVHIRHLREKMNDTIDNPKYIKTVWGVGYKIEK
T2 sequence (Q06239 whole entry, the tested form may be a part): as the sequence (Q06239 whole entry, one chain of several) above
T3 sequence (Q06239 whole entry, one chain of several): as above
T4 sequence (P0AFJ5 whole entry): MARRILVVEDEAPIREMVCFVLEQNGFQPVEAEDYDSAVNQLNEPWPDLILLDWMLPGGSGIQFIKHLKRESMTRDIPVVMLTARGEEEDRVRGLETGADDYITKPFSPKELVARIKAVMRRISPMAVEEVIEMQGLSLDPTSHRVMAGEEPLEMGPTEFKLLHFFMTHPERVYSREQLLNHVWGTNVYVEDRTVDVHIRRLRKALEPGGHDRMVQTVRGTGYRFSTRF

Substance	inhibition of the binding of VanR˜P to DNA segment of cognate promoter PVanH [1]	binding to the regulatory domain of VanR [2]	inhibition of the interaction between VanR and PVanH [3]	inhibition of phosphoryl transfer from VanS˜P to PhoB [4]
SEQ ID NO. 1: dodecamer peptide selected from a combinatorial phage-display library for binding to VanR; contains two Cys residues (SLCHDSVIGWEC)	found to inhibit the binding of VanR˜P	localized to the N-terminal, regulatory domain of VanR; also recorded: bound reproducibly to the cloned regulatory domain of VanR preferentially	inhibited the interaction between VanR and PVanH	–
SEQ ID NO. 2: modified peptide derived from SEQ ID NO. 1, more closely resembling VanS; the two Cys replaced with Ala and Ser (SLAHDSIIGYLS)	found to inhibit the binding of VanR˜P	–	–	inhibited phosphoryl transfer
